# Measurements published in US20200262877A1, “ION CHANNEL-BINDING PEPTIDES AND METHODS OF USE THEREOF” (priority 2017, published 2020).
# Tests used:
# 5HT3a = target: T1, 5HT3a (Homo sapiens, UniProt P46098); assay: Ion channel panel (IonWorks Barracuda): 5HT3a; format: cell-based
# T1 construct: host or cells: HEK293 or CHO
# T1 sequence (P46098 whole entry, looked up): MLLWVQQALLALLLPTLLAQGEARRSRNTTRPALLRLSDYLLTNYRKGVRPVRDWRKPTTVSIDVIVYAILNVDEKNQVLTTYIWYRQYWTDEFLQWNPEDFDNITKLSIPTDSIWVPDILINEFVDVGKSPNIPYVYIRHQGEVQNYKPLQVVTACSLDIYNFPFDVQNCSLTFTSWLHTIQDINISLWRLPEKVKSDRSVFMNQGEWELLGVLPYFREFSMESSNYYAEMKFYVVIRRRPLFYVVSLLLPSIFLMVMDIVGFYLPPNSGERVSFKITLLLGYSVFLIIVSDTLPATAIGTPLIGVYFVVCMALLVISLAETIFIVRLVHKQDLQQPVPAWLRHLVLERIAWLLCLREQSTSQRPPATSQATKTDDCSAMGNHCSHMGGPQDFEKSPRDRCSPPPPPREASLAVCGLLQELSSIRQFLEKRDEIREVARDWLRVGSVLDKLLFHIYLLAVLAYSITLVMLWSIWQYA
# Method in brief: (§1)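 Peptides were tested in duplicate at final 20 μM and 200 nM, with concentration set by amino acid analysis, in HEPES-buffered saline. They were applied for at least 5 min to HEK293 or CHO cells transfected with each channel. Currents were expressed as % inhibition, 1-(Ipeptide/Icontrol)×100, or % activation, Ipeptide/Icontrol×100, against a channel-matched reference compound.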
# α3β4 = target: T2, α3β4 (Homo sapiens, UniProt P30926+P32297); assay: Ion channel panel (IonWorks Barracuda): α3β4; format: cell-based; conditions: 100% = no change, <100% = inhibition
# T2 construct: host or cells: HEK293 or CHO
# Method in brief: as §1
# α4β2 = target: T3, α4β2 (Homo sapiens, UniProt P17787+P43681); assay: Ion channel panel (IonWorks Barracuda): α4β2; format: cell-based; conditions: 100% = no change, <100% = inhibition
# T3 construct: host or cells: HEK293 or CHO
# Method in brief: as §1
# Cav2.1 = target: T4, Cav2.1 (Homo sapiens, UniProt O00555); assay: cell-based; conditions: 100% = no change, <100% = inhibition
# T4 construct: host or cells: HEK293 or CHO
# Method in brief: as §1
# Cav2.2 = target: T5, Cav2.2 (Homo sapiens, UniProt Q00975); assay: cell-based; conditions: 100% = no change, <100% = inhibition
# T5 construct: host or cells: HEK293 or CHO
# Method in brief: as §1
# Kv2.1 = target: T6, Kv2.1 (Homo sapiens, UniProt Q14721); assay: cell-based; conditions: 100% = no change, <100% = inhibition
# T6 construct: host or cells: HEK293 or CHO
# Method in brief: as §1
# GABA = assay: Ion channel panel (IonWorks Barracuda): GABA; format: cell-based; conditions: 100% = no change, <100% = inhibition
# Method in brief: as §1
# Nav1.5 = Nav1.5 (Homo sapiens, UniProt Q14524); assay: in vitro; conditions: 100% = no change; for Activity of Nav1.5 with peptide, expressed as a percentage of the reference compound: peptide at 0.2 μM; for Activity of Nav1.5 with peptide (percentage of the reference compound): peptide at 20 μM
# Method in brief: as §1
# hERG = hERG (Homo sapiens, UniProt Q12809); assay: in vitro; conditions: 100% = no change, <100% = inhibition
# Method in brief: as §1
# Kir2.1 = target: T7, Kir2.1 (Homo sapiens, UniProt P63252); assay: Ion channel panel (IonWorks Barracuda): Kir2.1; format: cell-based; conditions: 100% = no change, <100% = inhibition
# T7 construct: host or cells: HEK293 or CHO
# Method in brief: as §1
# Kv1.1 = target: T8, Kv1.1 (Homo sapiens, UniProt Q09470); assay: cell-based; format: cell-based; conditions: 100% = no change, <100% = inhibition
# T8 construct: host or cells: HEK293 or CHO
# Method in brief: as §1
# Kv1.2 = target: T9, Kv1.2 (Homo sapiens, UniProt P16389); assay: cell-based; format: cell-based; conditions: 100% = no change, <100% = inhibition
# T9 construct: host or cells: HEK293 or CHO
# Method in brief: as §1
# Kv1.3 = target: T10, Kv1.3 (Homo sapiens, UniProt P22001); assay: cell-based; format: cell-based; conditions: 100% = no change, <100% = inhibition
# T10 construct: host or cells: HEK293 or CHO
# Method in brief: as §1
# Nav1.7 = target: T11, Nav1.7 (Homo sapiens, UniProt Q15858); assay: cell-based; format: cell-based; conditions: 100% = no change; for Activity of Nav1.7 with peptide, expressed as a percentage of the reference compound: peptide at 0.2 μM; for Activity of Nav1.7 with peptide (percentage of the reference compound): peptide at 20 μM
# T11 construct: host or cells: HEK293 or CHO
# NR2A = target: T12, NR2A (Homo sapiens, UniProt Q12879); assay: Ion channel panel (IonWorks Barracuda): NR2A; format: cell-based; conditions: 100% = no change, <100% = inhibition
# T12 construct: host or cells: HEK293 or CHO
# Method in brief: as §1
# NR2B = target: T13, NR2B (Homo sapiens, UniProt Q13224); assay: Ion channel panel (IonWorks Barracuda): NR2B; format: cell-based; conditions: 100% = no change, <100% = inhibition
# T13 construct: host or cells: HEK293 or CHO
# Method in brief: as §1
# TRPA1 = target: T14, TRPA1 (Homo sapiens, UniProt O75762); assay: Ion channel panel (IonWorks Barracuda): TRPA1; format: cell-based; conditions: 100% = no change, <100% = inhibition
# T14 construct: host or cells: HEK293 or CHO
# Method in brief: as §1
# TRPV1 = target: T15, TRPV1 (Homo sapiens, UniProt Q8NER1); assay: Ion channel panel (IonWorks Barracuda): TRPV1; format: cell-based; conditions: 100% = no change, <100% = inhibition
# T15 construct: host or cells: HEK293 or CHO
# Method in brief: as §1
# [1] = first of two Nav1.5 columns (probably TP1)
# [2] = second of two Nav1.5 columns (probably TP2)
# [3] = first of two Nav1.7 columns (probably TP1)
# [4] = second of two Nav1.7 columns (probably TP2)
# Chain of Nav1.5 (Q14524 whole entry): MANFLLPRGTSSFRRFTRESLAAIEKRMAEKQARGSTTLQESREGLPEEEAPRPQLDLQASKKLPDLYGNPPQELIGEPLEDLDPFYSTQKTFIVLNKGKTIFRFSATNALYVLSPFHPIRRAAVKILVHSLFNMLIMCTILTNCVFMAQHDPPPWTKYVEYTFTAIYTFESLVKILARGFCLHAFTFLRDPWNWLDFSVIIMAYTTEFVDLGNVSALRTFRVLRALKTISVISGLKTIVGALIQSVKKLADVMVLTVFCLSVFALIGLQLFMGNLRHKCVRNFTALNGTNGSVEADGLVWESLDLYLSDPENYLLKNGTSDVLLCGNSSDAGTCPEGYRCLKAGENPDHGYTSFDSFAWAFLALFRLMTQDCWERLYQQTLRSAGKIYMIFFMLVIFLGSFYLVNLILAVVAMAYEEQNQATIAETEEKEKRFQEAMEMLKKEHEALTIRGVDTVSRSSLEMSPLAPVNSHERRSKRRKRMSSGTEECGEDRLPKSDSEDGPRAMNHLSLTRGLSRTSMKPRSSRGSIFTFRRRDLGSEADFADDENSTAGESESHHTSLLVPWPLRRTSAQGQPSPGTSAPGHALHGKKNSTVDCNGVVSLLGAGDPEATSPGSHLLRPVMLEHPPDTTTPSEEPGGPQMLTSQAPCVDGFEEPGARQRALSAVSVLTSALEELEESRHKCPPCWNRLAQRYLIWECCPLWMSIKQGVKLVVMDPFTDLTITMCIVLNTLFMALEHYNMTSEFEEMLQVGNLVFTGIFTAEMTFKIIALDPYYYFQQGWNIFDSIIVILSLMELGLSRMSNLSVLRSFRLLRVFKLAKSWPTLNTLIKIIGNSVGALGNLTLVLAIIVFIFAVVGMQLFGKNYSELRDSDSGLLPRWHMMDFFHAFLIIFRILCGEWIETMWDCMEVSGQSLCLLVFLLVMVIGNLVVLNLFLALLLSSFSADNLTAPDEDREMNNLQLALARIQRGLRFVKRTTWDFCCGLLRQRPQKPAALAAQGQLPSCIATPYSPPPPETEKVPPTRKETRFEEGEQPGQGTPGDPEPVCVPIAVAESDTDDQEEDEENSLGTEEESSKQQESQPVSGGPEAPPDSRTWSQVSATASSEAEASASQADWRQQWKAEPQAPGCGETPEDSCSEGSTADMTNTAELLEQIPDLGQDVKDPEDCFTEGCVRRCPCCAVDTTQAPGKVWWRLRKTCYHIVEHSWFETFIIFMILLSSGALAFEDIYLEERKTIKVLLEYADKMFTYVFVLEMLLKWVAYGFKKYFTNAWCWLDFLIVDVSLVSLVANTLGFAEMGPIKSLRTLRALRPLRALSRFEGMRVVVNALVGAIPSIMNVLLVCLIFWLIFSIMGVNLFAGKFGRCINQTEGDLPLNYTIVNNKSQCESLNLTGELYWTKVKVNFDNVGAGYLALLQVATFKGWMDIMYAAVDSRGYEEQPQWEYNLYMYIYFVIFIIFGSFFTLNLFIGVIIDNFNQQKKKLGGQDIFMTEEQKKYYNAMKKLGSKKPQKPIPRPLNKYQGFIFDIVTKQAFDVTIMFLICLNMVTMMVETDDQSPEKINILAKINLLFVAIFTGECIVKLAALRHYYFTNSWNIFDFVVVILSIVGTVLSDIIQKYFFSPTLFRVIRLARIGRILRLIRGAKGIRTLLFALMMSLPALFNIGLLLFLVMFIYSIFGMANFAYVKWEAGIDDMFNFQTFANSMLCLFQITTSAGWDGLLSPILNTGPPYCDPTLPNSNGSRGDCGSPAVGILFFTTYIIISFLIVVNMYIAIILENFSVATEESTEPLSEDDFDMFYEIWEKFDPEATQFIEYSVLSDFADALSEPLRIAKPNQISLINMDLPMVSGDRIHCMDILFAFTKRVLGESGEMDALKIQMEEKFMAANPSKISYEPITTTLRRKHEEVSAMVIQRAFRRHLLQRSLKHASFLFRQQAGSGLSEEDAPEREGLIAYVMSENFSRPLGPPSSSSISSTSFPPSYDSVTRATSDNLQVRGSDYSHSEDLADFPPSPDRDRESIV
# T11 sequence (Q15858 whole entry): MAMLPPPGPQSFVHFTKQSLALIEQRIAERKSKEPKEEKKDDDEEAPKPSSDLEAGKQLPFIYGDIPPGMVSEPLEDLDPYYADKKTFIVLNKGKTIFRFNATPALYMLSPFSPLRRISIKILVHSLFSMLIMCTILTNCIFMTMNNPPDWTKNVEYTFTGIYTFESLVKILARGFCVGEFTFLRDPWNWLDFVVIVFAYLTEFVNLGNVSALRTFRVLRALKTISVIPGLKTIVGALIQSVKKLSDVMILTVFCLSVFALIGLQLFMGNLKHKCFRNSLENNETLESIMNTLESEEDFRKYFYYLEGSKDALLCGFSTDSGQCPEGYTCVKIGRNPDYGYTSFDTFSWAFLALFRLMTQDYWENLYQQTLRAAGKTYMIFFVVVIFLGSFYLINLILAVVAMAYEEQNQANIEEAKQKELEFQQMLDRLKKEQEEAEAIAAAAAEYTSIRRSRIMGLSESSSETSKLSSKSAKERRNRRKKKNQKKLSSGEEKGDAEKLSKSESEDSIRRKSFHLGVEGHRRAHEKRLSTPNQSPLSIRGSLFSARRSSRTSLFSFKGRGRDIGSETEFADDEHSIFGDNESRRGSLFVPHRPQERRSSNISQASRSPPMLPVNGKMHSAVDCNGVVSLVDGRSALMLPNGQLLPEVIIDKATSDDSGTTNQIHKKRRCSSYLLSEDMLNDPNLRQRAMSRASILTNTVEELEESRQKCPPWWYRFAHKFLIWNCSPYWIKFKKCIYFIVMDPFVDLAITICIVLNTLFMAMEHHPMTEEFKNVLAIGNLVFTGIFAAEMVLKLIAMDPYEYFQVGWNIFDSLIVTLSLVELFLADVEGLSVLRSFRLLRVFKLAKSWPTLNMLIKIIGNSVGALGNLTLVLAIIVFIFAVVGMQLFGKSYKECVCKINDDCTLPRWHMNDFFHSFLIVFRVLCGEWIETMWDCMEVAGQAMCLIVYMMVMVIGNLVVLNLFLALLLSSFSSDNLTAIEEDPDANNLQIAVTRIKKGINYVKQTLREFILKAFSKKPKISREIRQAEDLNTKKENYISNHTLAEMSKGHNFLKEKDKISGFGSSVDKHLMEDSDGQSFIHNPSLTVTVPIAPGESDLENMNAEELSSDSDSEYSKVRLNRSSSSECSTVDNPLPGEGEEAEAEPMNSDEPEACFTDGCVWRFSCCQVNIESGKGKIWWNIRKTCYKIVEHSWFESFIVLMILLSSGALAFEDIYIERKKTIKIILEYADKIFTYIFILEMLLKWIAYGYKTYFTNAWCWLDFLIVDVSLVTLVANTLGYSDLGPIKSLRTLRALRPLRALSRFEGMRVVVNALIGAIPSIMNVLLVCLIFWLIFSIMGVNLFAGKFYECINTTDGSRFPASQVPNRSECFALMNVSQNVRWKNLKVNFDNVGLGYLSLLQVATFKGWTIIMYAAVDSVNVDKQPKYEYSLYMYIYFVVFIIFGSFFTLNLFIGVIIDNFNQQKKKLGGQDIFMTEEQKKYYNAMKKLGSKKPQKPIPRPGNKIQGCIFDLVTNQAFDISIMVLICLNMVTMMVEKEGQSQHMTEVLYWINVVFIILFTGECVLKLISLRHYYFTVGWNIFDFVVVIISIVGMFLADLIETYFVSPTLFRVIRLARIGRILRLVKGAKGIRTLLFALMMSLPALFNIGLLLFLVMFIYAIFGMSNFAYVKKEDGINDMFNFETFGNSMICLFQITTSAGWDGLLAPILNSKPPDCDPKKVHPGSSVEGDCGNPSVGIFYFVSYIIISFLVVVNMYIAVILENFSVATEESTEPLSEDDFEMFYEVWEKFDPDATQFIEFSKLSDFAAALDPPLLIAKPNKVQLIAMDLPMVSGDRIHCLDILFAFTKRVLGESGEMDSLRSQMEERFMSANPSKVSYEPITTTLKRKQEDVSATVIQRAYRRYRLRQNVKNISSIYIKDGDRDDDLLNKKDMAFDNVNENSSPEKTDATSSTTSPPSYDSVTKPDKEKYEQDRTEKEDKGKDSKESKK
# T14 sequence (O75762 whole entry): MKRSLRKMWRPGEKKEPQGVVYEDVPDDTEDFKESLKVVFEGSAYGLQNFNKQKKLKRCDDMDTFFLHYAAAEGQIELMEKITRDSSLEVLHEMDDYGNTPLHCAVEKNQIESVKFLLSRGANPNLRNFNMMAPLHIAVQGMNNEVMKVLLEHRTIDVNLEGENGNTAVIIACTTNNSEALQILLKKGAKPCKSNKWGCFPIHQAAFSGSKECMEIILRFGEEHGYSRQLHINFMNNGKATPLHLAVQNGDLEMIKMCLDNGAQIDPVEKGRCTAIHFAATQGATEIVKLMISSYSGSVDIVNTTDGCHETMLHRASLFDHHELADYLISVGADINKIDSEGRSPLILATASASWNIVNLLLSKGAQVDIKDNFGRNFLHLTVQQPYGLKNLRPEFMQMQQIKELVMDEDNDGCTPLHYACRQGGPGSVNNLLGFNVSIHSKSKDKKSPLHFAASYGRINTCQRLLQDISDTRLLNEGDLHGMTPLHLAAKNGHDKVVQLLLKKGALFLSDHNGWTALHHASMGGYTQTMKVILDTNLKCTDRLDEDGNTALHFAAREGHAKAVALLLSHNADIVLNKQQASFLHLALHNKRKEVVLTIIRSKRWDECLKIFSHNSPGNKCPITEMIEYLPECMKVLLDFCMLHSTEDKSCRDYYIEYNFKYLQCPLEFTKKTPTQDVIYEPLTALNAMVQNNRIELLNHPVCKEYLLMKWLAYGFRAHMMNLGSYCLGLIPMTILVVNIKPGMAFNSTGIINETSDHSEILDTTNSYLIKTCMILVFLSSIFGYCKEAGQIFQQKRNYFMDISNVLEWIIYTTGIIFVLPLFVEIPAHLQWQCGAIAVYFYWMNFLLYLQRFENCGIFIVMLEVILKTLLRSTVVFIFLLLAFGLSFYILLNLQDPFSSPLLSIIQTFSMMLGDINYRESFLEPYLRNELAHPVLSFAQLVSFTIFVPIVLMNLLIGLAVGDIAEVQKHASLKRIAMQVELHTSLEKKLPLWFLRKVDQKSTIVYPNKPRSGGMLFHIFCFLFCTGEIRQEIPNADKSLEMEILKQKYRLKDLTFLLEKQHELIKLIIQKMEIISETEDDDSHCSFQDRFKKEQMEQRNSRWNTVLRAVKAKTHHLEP
substance,measurement,setting,value
12 (GSNFKVEGACSKPCRKYCIDKGARNGKCINGRCHCYY) [compound 12],Activity of 5HT3a with peptide (percentage of the reference compound),5HT3a,97%
same,"Activity of 5HT3a with peptide, expressed as a percentage of the reference compound",5HT3a,96%
same,"Activity of a3b4 with peptide, expressed as a percentage of the reference compound",α3β4; peptide at 0.2 μM,103%
same,Activity of a3b4 with peptide (percentage of the reference compound),α3β4; peptide at 20 μM,94%
same,"Activity of a4b2 with peptide, expressed as a percentage of the reference compound",α4β2; peptide at 0.2 μM,97%
same,Activity of a4b2 with peptide (percentage of the reference compound),α4β2; peptide at 20 μM,84%
same,"Activity of Cav2.1 with peptide, expressed as a percentage of the reference compound",Cav2.1; peptide at 0.2 μM,109%
same,Activity of Cav2.1 with peptide (percentage of the reference compound),Cav2.1; peptide at 20 μM,104%
same,"Activity of Cav2.2 with peptide, expressed as a percentage of the reference compound",Cav2.2; peptide at 0.2 μM,115%
same,Activity of Cav2.2 with peptide (percentage of the reference compound),Cav2.2; peptide at 20 μM,115%
same,"Activity of Kv2.1 with peptide, expressed as a percentage of the reference compound",Kv2.1; peptide at 0.2 μM,104%
same,Activity of Kv2.1 with peptide (percentage of the reference compound),Kv2.1; peptide at 20 μM,113%
same,"Activity of GABA with peptide, expressed as a percentage of the reference compound",GABA; peptide at 0.2 μM,102%
same,Activity of GABA with peptide (percentage of the reference compound),GABA; peptide at 20 μM,93%
same,"Activity of Nav1.5 with peptide, expressed as a percentage of the reference compound",Nav1.5; [1],98%
same,"Activity of Nav1.5 with peptide, expressed as a percentage of the reference compound",Nav1.5; [2],95%
same,Activity of Nav1.5 with peptide (percentage of the reference compound),Nav1.5; [1],131%
same,Activity of Nav1.5 with peptide (percentage of the reference compound),Nav1.5; [2],136%
same,"Activity of hERG with peptide, expressed as a percentage of the reference compound",hERG; peptide at 0.2 μM,89%
same,Activity of hERG with peptide (percentage of the reference compound),hERG; peptide at 20 μM,81%
same,"Activity of Kir2.1 with peptide, expressed as a percentage of the reference compound",Kir2.1; peptide at 0.2 μM,97%
same,Activity of Kir2.1 with peptide (percentage of the reference compound),Kir2.1; peptide at 20 μM,102%
same,"Activity of Kv1.1 with peptide, expressed as a percentage of the reference compound",Kv1.1; peptide at 0.2 μM,107%
same,Activity of Kv1.1 with peptide (percentage of the reference compound),Kv1.1; peptide at 20 μM,84%
same,"Activity of Kv1.2 with peptide, expressed as a percentage of the reference compound",Kv1.2; peptide at 0.2 μM,88%
same,Activity of Kv1.2 with peptide (percentage of the reference compound),Kv1.2; peptide at 20 μM,41%
same,"Activity of Kv1.3 with peptide, expressed as a percentage of the reference compound",Kv1.3; peptide at 0.2 μM,68%
same,Activity of Kv1.3 with peptide (percentage of the reference compound),Kv1.3; peptide at 20 μM,23%
same,"Activity of Nav1.7 with peptide, expressed as a percentage of the reference compound",Nav1.7; [3],61%
same,"Activity of Nav1.7 with peptide, expressed as a percentage of the reference compound",Nav1.7; [4],66%
same,Activity of Nav1.7 with peptide (percentage of the reference compound),Nav1.7; [3],74%
same,Activity of Nav1.7 with peptide (percentage of the reference compound),Nav1.7; [4],63%
same,"Activity of NR2A with peptide, expressed as a percentage of the reference compound",NR2A; peptide at 0.2 μM,94%
same,Activity of NR2A with peptide (percentage of the reference compound),NR2A; peptide at 20 μM,91%
same,"Activity of NR2B with peptide, expressed as a percentage of the reference compound",NR2B; peptide at 0.2 μM,122%
same,Activity of NR2B with peptide (percentage of the reference compound),NR2B; peptide at 20 μM,83%
same,"Activity of TRPA1 with peptide, expressed as a percentage of the reference compound",TRPA1; peptide at 0.2 μM,129%
same,Activity of TRPA1 with peptide (percentage of the reference compound),TRPA1; peptide at 20 μM,80%
same,"Activity of TRPV1 with peptide, expressed as a percentage of the reference compound",TRPV1; peptide at 0.2 μM,97%
same,Activity of TRPV1 with peptide (percentage of the reference compound),TRPV1; peptide at 20 μM,78%
